Columns and labels:
[1] = target: the molecule itself; experiment: SEC; HiLoad 16/600 Superdex 200 pg column, HEPES buffer pH 7.5, calibrated with LMW and HMW protein standards
[2] = target: the molecule itself; experiment: AUC; sedimentation velocity, 40000 rpm, 20°C, 8 or 16 μM hPLD3, absorbance at 280 or 290 nm
hPLD3 luminal domain [3] = target: T1, hPLD3 luminal domain (Homo sapiens, UniProt Q8IV08 61-490); experiment: ITC; N = 1.0; dH -12 kcal/mol; no phosphorothioate, cleavable substrate; ITC: 20 mM HEPES pH 7.5, 150 mM NaCl, 10 C; 380 uM ssDNA in syringe, 10 uM hPLD3 in cell. Crystals: 15% PEG 4000, 0.02 M NaI, 0.9 M ammonium sulfate, 15% glycerol; conditions: protein: recombinant; tags: C-terminal 6xHis; chain copies: 2; single strand
T1 sequence: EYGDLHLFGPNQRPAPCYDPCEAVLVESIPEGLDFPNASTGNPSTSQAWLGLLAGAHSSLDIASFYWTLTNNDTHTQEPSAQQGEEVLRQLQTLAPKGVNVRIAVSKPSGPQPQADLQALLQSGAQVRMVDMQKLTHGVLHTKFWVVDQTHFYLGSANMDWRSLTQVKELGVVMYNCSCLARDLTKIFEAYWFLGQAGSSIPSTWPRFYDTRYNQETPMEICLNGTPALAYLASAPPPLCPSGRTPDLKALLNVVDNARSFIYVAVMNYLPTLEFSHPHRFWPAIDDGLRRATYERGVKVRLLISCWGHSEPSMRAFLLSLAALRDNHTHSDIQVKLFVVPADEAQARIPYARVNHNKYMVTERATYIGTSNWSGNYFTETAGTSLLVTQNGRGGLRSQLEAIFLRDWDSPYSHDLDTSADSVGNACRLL

hPLD3 luminal domain [4] = target: T1, hPLD3 luminal domain; experiment: ITC; ITC: 20 mM HEPES pH 7.5, 150 mM NaCl, 10 C; 380 uM ssDNA in syringe, 10 uM hPLD3 in cell. Crystals: 15% PEG 4000, 0.02 M NaI, 0.9 M ammonium sulfate, 15% glycerol; conditions: protein: recombinant; tags: C-terminal 6xHis; chain copies: 2; single strand
hPLD3 luminal domain [5] = target: T1, hPLD3 luminal domain; experiment: ITC; N = 0.9; dH 30 kcal/mol; ITC: 20 mM HEPES pH 7.5, 150 mM NaCl, 10 C; 380 uM ssDNA in syringe, 10 uM hPLD3 in cell. Crystals: 15% PEG 4000, 0.02 M NaI, 0.9 M ammonium sulfate, 15% glycerol; conditions: protein: recombinant; tags: C-terminal 6xHis; chain copies: 2; single strand

B1: luminal domain (residues 61–490) of human PLD3 (domain or fragment, UniProt Q8IV08 61-490, looked up)
chain: T1 sequence
modifications: N-glycosylated (Man5GlcNAc2, high-mannose type) at Asn97, Asn132, Asn236, Asn284 and Asn387, at least partially; Cys300 oxidized to cysteine sulfonic acid (OCS)
notes: human PLD3 (phospholipase D3), luminal domain, residues 61-490, starting directly after the transmembrane segment; In the crystals residues 72–98 and 101–490 are seen, 61–71 and 99–100 are not visible; also called hPLD3; hPLD3_(61-490); source: HEK293S GnTI- stably transfected monoclonal cell line, secreted into culture supernatant, purified (NiNTA, SEC)
- stoichiometry N [1]: 2
- stoichiometry N [2]: 4

Binder: TTCATG (ssDNA)
- Kd (hPLD3 luminal domain [3]): 20 ± 2 µM

B2: T*T*C*A*T*G* (ssDNA)
DNA: TTCATG
modifications: phosphorothioate at all linkages (mixed Rp/Sp); printed with * also after the last G
- binding result (hPLD3 luminal domain [4]): no binding

Binder: TTCATG (ssDNA, phosphorothioate between nt 1 and 2 (mixed Rp/Sp)) [T*TCATG]
- Kd (hPLD3 luminal domain [5]): 28 ± 4 µM
